{"source": "patent US8361484B2", "about": "“Polymer systems for lung volume reduction therapy” (Aeris Therapeutics, Inc., priority 2006, dated 2013)", "assay": "PVA hydrogel durability in phosphate buffered saline pH 7.4, integrity checked by periodic inversion", "type": "physicochemical", "settings": "additive at 10%; 4% borate; PBS pH 7.4, room temperature", "experimental": "The effect of the PVA (99% hydrolysis rate; average molecular weight 100K) concentration on gel durability was evaluated by first aliquotting 0.2 mL of a 4% borate solution into bottom of 14 mL tube. Then 1.8 mL of various PVA solutions of 2-5% concentrations were added by vigorous injection through a 3 mL syringe with an 18G needle. Three tubes were prepared for of each concentration and cured at room temperature for one hour to insure complete polymerization. 8 mL of phosphate buffered saline, pH 7.4, were added to each tube, covered and incubated at room temperature. The integrity of the gels was checked by periodic inversion.\nThe effect of additives on the durability of the PVA gel (99% hydrolysis rate; average molecular weight 100K) was evaluated by first aliquotting 0.2 mL of a 4% borate solution into bottom of 14 mL tube. Then 1.8 mL of PVA (5%) and additive containing solutions of 2-5% concentrations were added by vigorous injection through a 3 mL syringe with an 18G needle. Three tubes were prepared for of each concentration and cured at room temperature for one hour to insure complete polymerization. 8 mL of phosphate buffered saline, pH 7.4, were added to each tube, covered and incubated at room temperature. The integrity of the gels was checked by periodic inversion. […]"}
{"substance": "albumin", "values": [{"measurement": "Effect of additive on durability of 5% PVA hydrogels", "result": "increase the durability"}]}
